Measurements published in article doi:10.1101/2020.06.24.169607 (bioRxiv, 2020).

Biological target: the molecule itself
Assay: differential scanning calorimetry

B1: PSD95-PDZ3 wild type (third PDZ domain of postsynaptic density-95 protein) (domain or fragment)
chain: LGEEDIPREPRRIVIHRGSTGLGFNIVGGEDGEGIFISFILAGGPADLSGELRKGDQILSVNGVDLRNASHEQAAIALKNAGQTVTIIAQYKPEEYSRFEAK
stoichiometry N: 6
